Measured values taken from US20080194020A1, “Methods For Producing Dendritic Cells That Have Acquired Ctl-Inducing Ability” (Medical and Biological Laboratories Co., Ltd., priority 2004, published 2008).

Key:
DC2.4 cells [1] = test: MHC class I cross-presentation by DC2.4 cells to OT-I CD8+ T cells (IL-2 ELISA); assay type: cell-based, mouse; conditions: for antigenicity for stimulation of CD8+ OT-I T cells: FIG. 8a, OVA compared with bOVA
Source text: Whether knock-down of cellular components involved in ERAD decreases the cross-presentation of exogenous OVA antigen was examined using a system for evaluating the level of antigen presentation, which uses naive CD8^+ T cells from OT-I mice and DC2.4 cells. The DC2.4 cells used as a model of dendritic cells are of the H-2Kb mouse MHC class I haplotype. OT-I (H-2Kb) mice are transgenic mice expressing a T cell receptor (TCRα and β) that recognizes an antigenic peptide (SIINFEKL) (SEQ ID NO: 15) derived from OVA presented on the H-2Kb molecules. The CD8^+ cells of OT-I mice are activated when they recognize OVA peptides presented by BMDCs derived from H-2Kb mice or by DC2.4 cells. When OVA or bOVA is incubated with and affixed onto DC2.4 cells and the cells are further incubated with naive CD8^+ T cells of OT-I mice, the amount of IL-2 produced by OT-I CD8^+ T cells serves as an index of T-cell stimulation as a result of OVA antigen presented by DC2.4 cells.
Parental or knocked-down DC2.4 cells were pre-incubated in a culture medium supplemented with 50 μg mL^−1 polymyxin B for 30 minutes in the presence or absence of lactacystin or MG-132, and incubated with OVA (250 μg mL^−1) or SIINFEKL peptides (10 ng mL^−1) for six hours. The cells were washed, fixed with 1% paraformaldehyde, and aliquoted into microtiter plates (5×10^4 per well). 5×10^4 CD8^+ T cells purified from splenocytes of OT-1 mice using magnetic beads were added to each well and after a 24-hour incubation, the IL-2 secretion was measured by ELISA (BD Biosciences) in triplicate.
DC2.4 cells were incubated with OVA (0, 50, or 250 μg/mL) in RPMI1640/10c% FCS for six hours at 37° C., in the presence or absence of pig-derived HSP90 (10 μg/mL). After washing away the antigen and HSP, OT-I CD8^+ T cells were added, cells were cultured overnight at 37° C., and the amount of IL-2 comprised in the supernatant was measured by the ELISA method.
The timing of the addition of HSP90 (10 μg/mL) and OVA (250 μg/mL) to DC2.4 cells was varied, and the effect on class I antigen presentation was observed. (i) HSP90 was added first, DC2.4 cells were washed, and then OVA was added. (ii) HSP90 and OVA were added simultaneously to DC2.4 cells. (iii) OVA was added first, and after washing DC2.4 cells, HSP90 was added. The results obtained under these three conditions were compared. […]
Under condition (i), HSP90 was added to DC2.4 cells, the cells were cultured for 30 minutes and then washed to remove HSP90. […] DC2.4 cells activated with OVA by the above procedure were plated in a 96-well plate, OT-I mouse-derived CD8^+ T cells were added to this, and after culturing overnight, the amount of IL-2 released into the supernatant was measured by ELISA. […]

DC2.4 cells [2] = test: MHC class II antigen presentation by DC2.4 cells to OT-II CD4+ T cells (IL-2 production); assay type: cell-based, mouse; conditions: FIG. 9 control: DC2.4 cells cultured with OVA, no NH4Cl
Method: DC2.4 cells pretreated in the presence of NH4Cl were cultured with OVA, and then the stimulation of OT-I CD8^+ T cells in response to MHC class I antigen presentation (circles) and stimulation of OT-II CD4^+ T cells in response to MHC class II antigen presentation (triangles) was determined by measuring IL-2 production levels. IL-2 production level in the presence of NH4Cl was expressed as a ratio relative to the control (IL-2 production was 700 pg/mL relative to OT-I, and 20 pg mL relative to OT-II).

DC2.4 cells [3] = tested on: DC2.4 cells
Method: Intracellular localization of foreign antigens was examined by cell fractionation methods. Chicken ovalbumin (OVA) was used as an antigen model, and DC2.4 (haplotype H-2Kb), a cultured cell line of mouse dendritic cells, was used as a model for dendritic cells. […] BMDCs with a haplotype of H-2Kb, the same as that of DC2.4, were used as the control. BMDCs were induced from the bone marrow cells of C57BL/6 mice (SLC) in RPMI-1640 supplemented with 5% FCS using 5 ng/mL GM-CSF (MEL), and those cells purified by magnetic beads after five days of culturing were used.
DC2.4 cells made to take up bOVA antigens were suspended in 10 mM Tris-HCl (pH7.4) containing 250 mM sucrose, this was homogenized using glass beads, centrifuged for 30 minutes at 250,000×g, and then fractionated. The supernatant was used as the soluble fraction; the precipitates were suspended in the same buffer as described above and used as the microsomal fraction. A fixed amount was incubated in the presence or absence of 1% TritonX-100, and together with or without 100 μg mL^−1 trypsin. Before collecting bOVA, soybean trypsin inhibitor (Sigma) was added at 500 μg mL^−1.

DC2.4 cells [4] = test: Uptake of antigenic protein into DC2.4 cells; assay type: cell-based, mouse; conditions: CHIP-knocked-down DC2.4 cells
Method: Next, DC2.4 cells were incubated for a set amount of time with OVA in the presence or absence of lactacystin (LC), and OVA taken up into the cells was measured. OVA taken up into cells in the presence or absence of Hsp90 was measured similarly.

DC2.4 cells [5] = test: Polyubiquitination of antigenic protein taken up by DC2.4 cells (SDS-PAGE, Western blot with anti-polyubiquitin antibody); assay type: cell-based, mouse
Method: There are reports that when the KDEL sequence (Lys-Asp-Glu-Leu) (SEQ ID NO: 3), an endoplasmic reticulum localization sequence, is added to the carboxyl terminus of a protein localized in the ER lumen, the protein is repeatedly transported between the ER and Golgi apparatus, and ERAD of that protein is promoted. Therefore, DC2.4 cells were made to take up OVA with KDEL (SEQ ID NO: 3) added to its C-terminus, and OVA that was polyubiquitinated after uptake was observed by SDS-PAGE and Western blotting. OVA to which a KDEL sequence (SEQ ID NO: 3) was added was constructed and expressed as follows: using a plasmid comprising a DNA sequence encoding OVA as a template, PCR was performed using oligo-1 (SEQ ID NO: 10) and oligo-2 (SEQ ID NO: 11) as primers. The amplified PCR product of approximately 1100 bp was introduced into a pCR-Blunt vector (Invitrogen) to obtain vector-1. Oligo-3 (SEQ ID NO: 12) and oligo-4 (SEQ ID NO: 13) were annealed, and the obtained gene fragment of approximately 100 bp was introduced into the pCR-Blunt vector to obtain vector-2. Vector-2 was digested with SpeI, the obtained gene fragment of approximately 130 bp was introduced into vector-1 that had been digested with NheI to obtain vector-3. An approximately 1250-bp gene fragment (OVA-KDEL) obtained when vector-3 was digested with BamHI/SpeI was introduced into a vector for gene expression, and then expressed. […]

B1: OVA: Chicken ovalbumin used as an antigen model (protein)
chain: GSIGAASMEFCFDVFKELKVHHANENIFYCPIAIMSALAMVYLGAKDSTRTQINKVVRFDKLPGFGDSIEAQCGTSVNVHSSLRDILNQITKPNDVYSFSLASRLYAEERYPILPEYLQCVKELYRGGLEPINFQTAADQARELINSWVESQTNGIIRNVLQPSSVDSQTAMVLVNAIVFKGLWEKAFKDEDTQAMPFRVTEQESKPVQMMYQIGLFRVASMASEKMKILELPFASGTMSMLVLLPDEVSGLEQLESIINFEKLTEWTSSNVMEERKIKVYLPRMKMEEKYNLTSVLMAMGITDVFSSSANLSGISSAESLKISQAVHAAHAEINEAGREVVGSAEAGVDAASVSEEFRADHPFLFCIKHIATNAVLFFGRCVSP
- antigenicity for stimulation of CD8+ OT-I T cells (DC2.4 cells [1]): equally antigenic
- IL-2 production, OT-I CD8+ T cells (DC2.4 cells [1]; FIG. 9 control: DC2.4 cells cultured with OVA, no NH4Cl): 700 pg/mL
- IL-2 production, OT-II CD4+ T cells (DC2.4 cells [2]): 20 pg·mL

B2: bOVA: OVA antigen recovered with streptavidin beads (biotin-labeled samples) (protein)
chain: B1 chain
- antigenicity for stimulation of CD8+ OT-I T cells (DC2.4 cells [1]): equally antigenic
- share of bOVA taken up by cells recovered as trypsin-resistant bOVA from the microsomal fraction (DC2.4 cells [3]): ≥ 70%
- uptake of bOVA relative to parental DC2.4 cells (DC2.4 cells [4]): about 70%
- polyubiquitination of bOVA (DC2.4 cells [5]; CHIP-knocked-down DC2.4 cells): 34%

B3: OVA-KDEL: OVA with the endoplasmic reticulum localization sequence KDEL added to its C-terminus, SEQ ID NO: 14 (protein)
chain: MGSIGAASMEFCFDVFKELKVHHANENIFYCPIAIMSALAMVYLGAKDSTRTQINKVVRFDKLPGFGDSIEAQCGTSVNVHSSLRDILNQITKPNDVYSFSLASRLYAEERYPILPEYLQCVKELYRGGLEPINFQTAADQARELINSWVESQTNGIIRNVLQPSSVDSQTAMVLVNAIVFKGLWEKAFKDEDTQAMPFRVTEQESKPVQMMYQIGLFRVASMASEKMKILELPFASGTMSMLVLLPDEVSGLEQLESIINFEKLTEWTSSNVMEERKIKVYLPRMKMEEKYNLTSVLMAMGITDVFSSSANLSGISSAESLKISQAVHAAHAEINEAGREVVGSAEAGVDAASVSEEFRADHPFLFCIKHIATNAVLFFGRCVSPASAEDYEYPSRSNGTKNNTSQASKDEL
- antigen presentation level compared to OVA (OT-I CD8+ T cells) (DC2.4 cells [1]; DC2.4 cells, data not shown): clearly found to be stronger
- polyubiquitination of the substrate compared to OVA (DC2.4 cells [5]; DC2.4 cells made to take up OVA with KDEL added to its C-terminus): significantly promoted polyubiquitination
